Biological target: Human PCNA (human, UniProt P12004 1-261)
Assay: pull-down

Human PCNA, sequence (P12004 whole entry): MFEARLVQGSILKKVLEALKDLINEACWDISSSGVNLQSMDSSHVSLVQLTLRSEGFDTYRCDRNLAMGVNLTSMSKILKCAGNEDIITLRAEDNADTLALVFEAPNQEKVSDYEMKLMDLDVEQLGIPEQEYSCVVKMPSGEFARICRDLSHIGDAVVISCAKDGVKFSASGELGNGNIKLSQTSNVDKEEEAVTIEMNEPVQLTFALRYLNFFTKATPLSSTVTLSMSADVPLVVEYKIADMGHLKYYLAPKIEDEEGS

- binding result: binds
Binder: ARHPSTKVMKQMDIGVYFGLPPKRKEEKLL [GST-tagged SNM1A PIP box peptide (GST-PIP)]
